Tests used:
[1] = target: T1, Recombinant human PD-1 Fc fusion protein (Sino Biological) (human, UniProt Q15116 25-167); assay: BLI (ForteBio Octet); antigen-Fc on Protein A sensors, construct in solution; NB: no binding detected
T1 construct: not shown: Fc part of a bought fusion protein
Method: (§1) Antigen binding of MIAC constructs were analyzed using ForteBio Octet. […] All antigens were reconstituted in PBS at the final concentration of 0.25 ug/ul. […] Association proceeded by dipping sensors in 100 nM MIAC constructs for 5 minutes and disassociation occurred in blank kinetics buffer for 5 minutes. For CD3 epsilon binding, antigen was immobilized on Ni-NTA sensors; association was performed in 50 nM MIAC constructs. Binding data were analyzed using ForteBio Data Analysis 9.0 software.

[2] = target: T2, Recombinant human Her2 Fc fusion protein (Sino Biological) (human, UniProt P04626 23-652); assay: as above
T2 construct: not shown: Fc part of a bought fusion protein
Method: as §1

[3] = target: T3, Recombinant human CD137 Fc fusion protein (Sino Biological) (human, UniProt Q07011 24-186); assay: BLI (ForteBio Octet); CD137 Fc on Protein A sensors, 100 nM construct; column 'Affinity (nM)'
T3 construct: not shown: Fc part of a bought fusion protein
Method: as §1

[4] = target: T1, Recombinant human PD-1 Fc fusion …; assay: ForteBio Octet bio-layer interferometry, sequential steps on one sensor: Her2 loading, blocking antibody, PID92, PD-1 (printed 'PI-1'), CD137
[5] = target: T1, Recombinant human PD-1 Fc fusion …; assay: BLI (ForteBio Octet); PD-1 Fc on Protein A sensors, 100 nM construct; column 'Affinity (nM)'
Method: as §1

[6] = target: T3, Recombinant human CD137 Fc fusion …; assay: ForteBio Octet bio-layer interferometry, sequential steps on one sensor: Her2 loading, blocking antibody, PID7, PD-1 (printed 'PI-1'), CD137
[7] = target: T3, Recombinant human CD137 Fc fusion …; assay: BLI (ForteBio Octet); antigen-Fc on Protein A sensors, construct in solution; NB: no binding detected
Method: as §1

T1 sequence (Q15116 25-167 limits assumed): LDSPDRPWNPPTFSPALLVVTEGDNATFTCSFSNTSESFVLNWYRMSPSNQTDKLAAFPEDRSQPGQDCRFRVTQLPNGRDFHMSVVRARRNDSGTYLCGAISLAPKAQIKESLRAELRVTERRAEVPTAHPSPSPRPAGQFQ

B1: PID-90 (monospecific anti-CD137; urelumab Fab domain, human IgG1) (antibody, V domains shown)
VH: QVQLQQWGAGLLKPSETLSLTCAVYGGSFSGYYWSWIRQSPEKGLEWIGEINHGGYVTYNPSLESRVTISVDTSKNQFSLKLSSVTAADTAVYYCARDYGPGNYDWYFDLWGRGTLVTVSS
VL: EIVLTQSPATLSLSPGERATLSCRASQSVSSYLAWYQQKPGQAPRLLIYDASNRATGIPARFSGSGSGTDFTLTISSLEPEDFAVYYCQQRSNWPPALTFGGGTKVEIKR
notes: also called PID90 (CD137)
binding result [1]: no binding (tested: 100 nM)
binding result [2]: no binding (tested: 100 nM)
Kd [3]: 700 pM

B2: PID-92 (bispecific Her2/CD137 MIAC; urelumab IgG1 with trastuzumab scFv at the heavy chain C-termini) (bispecific antibody)
heavy: not shown
light: not shown
notes: also called α-Her2/α-CD137 MIAC; PID92 [Her2/CD137]
binding result [4]: no binding
Kd [3]: 230 pM

B3: PID-7 (bispecific Her2/PD-1 MIAC; pembrolizumab IgG1 with trastuzumab scFv at the heavy chain C-termini) (bispecific antibody)
heavy: not shown
light: EIVLTQSPATLSLSPGERATLSCRASKGVSTSGYSYLHWYQQKPGQAPRLLIYLASYLESGVPARFSGSGSGTDFTLTISSLEPEDFAVYYCQHSRDLPLTFGGGTKVEIKRTVAAPSVFIFPPSDEQLKSGTASVVCLLNNFYPREAKVQWKVDNALQSGNSQESVTEQDSKDSTYSLSSTLTLSKADYEKHKVYACEVTHQGLSSPVTKSFNRGEC
notes: also called α-Her2/α-PD-1
Kd [5]: 120 pM
binding result [6]: no binding

B4: PID-2 (monospecific anti-PD-1; pembrolizumab Fab domain, human IgG1) (antibody, V domains shown)
VH: QVQLVQSGVEVKKPGASVKVSCKASGYTFTNYYMYWVRQAPGQGLEWMGGINPSNGGTNFNEKFKNRVTLTTDSSTTTAYMELKSLQFDDTAVYYCARRDYRFDMGFDYWGQGTTVTVSS
VL: EIVLTQSPATLSLSPGERATLSCRASKGVSTSGYSYLHWYQQKPGQAPRLLIYLASYLESGVPARFSGSGSGTDFTLTISSLEPEDFAVYYCQHSRDLPLTFGGGTKVEIKR
notes: also called PID2 (PD-1)
binding result [7]: no binding (tested: 100 nM)
binding result [2]: no binding (tested: 100 nM)

Reference: patent US20190031785A1 (COMPASS THERAPEUTICS, published 2019)
